Reference: publication PMC5348903

Experiments:
[1] = target: short isoform of BST2, Q10589-2; experiment: co-immunoprecipitation (Western blot densitometry); settings: HEK293T cells co-transfected with proviral construct and expressor of the short isoform of BST2; parent: 100
BST2 (WT BST2 expressor) = BST2 (WT BST2 expressor) (UniProt Q10589); experiment: co-immunoprecipitation (anti-BST2 Ab pull-down, Western blot densitometry); settings: HEK293T cells co-transfected with proviral construct and BST2 expressor; parent: 100

Chain of short isoform of BST2, Q10589-2 (Q10589 13-161): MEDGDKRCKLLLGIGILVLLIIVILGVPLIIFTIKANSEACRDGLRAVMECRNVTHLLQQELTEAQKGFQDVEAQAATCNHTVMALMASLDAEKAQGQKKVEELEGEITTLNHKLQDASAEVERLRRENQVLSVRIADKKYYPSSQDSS

## HIV-1 NL4-3 Vpu, wildtype A10L; A14L; A18L
[1]
  percent of parent (% BST2 binding (relative to WT)): 12
BST2 (WT BST2 expressor)
  percent of parent (% BST2 binding (relative to WT)): 14

## HIV-1 NL4-3 Vpu, wildtype E28A; L33A
[1]
  percent of parent (% BST2 binding (relative to WT)): 18
BST2 (WT BST2 expressor)
  percent of parent (% BST2 binding (relative to WT)): 24

## HIV-1 NL4-3 Vpu, wildtype E28A; L33A; E59K; L63F
[1]
  percent of parent (% BST2 binding (relative to WT)): 31
BST2 (WT BST2 expressor)
  percent of parent (% BST2 binding (relative to WT)): 43

## HIV-1 NL4-3 Vpu, wildtype E59K; L63F
[1]
  percent of parent (% BST2 binding (relative to WT)): 144
BST2 (WT BST2 expressor)
  percent of parent (% BST2 binding (relative to WT)): 139

## HIV-1 NL4-3 Vpu, wildtype S52D; S56D
[1]
  percent of parent (% BST2 binding (relative to WT)): 111
BST2 (WT BST2 expressor)
  percent of parent (% BST2 binding (relative to WT)): 130
